Results published in publication PMC9352680, “A comprehensive thermodynamic model for RNA binding by the Saccharomyces cerevisiae Pumilio protein PUF4”.

Experiments:
[1] = biological target: T1, PUF4 RNA-binding domain (Pumilio homology domain) (Saccharomyces cerevisiae) (UniProt P25339); assay: RNA-MaP; details: RNA-MaP: 20 mM Na-HEPES pH 7.4, 0.1% Tween-20, 5% glycerol, 0.1 mg/mL BSA, 2 mM DTT, low salt 0.75 mM MgCl2 + 30 mM KOAc (model data; high salt 2 mM MgCl2 + …)
T1 sequence: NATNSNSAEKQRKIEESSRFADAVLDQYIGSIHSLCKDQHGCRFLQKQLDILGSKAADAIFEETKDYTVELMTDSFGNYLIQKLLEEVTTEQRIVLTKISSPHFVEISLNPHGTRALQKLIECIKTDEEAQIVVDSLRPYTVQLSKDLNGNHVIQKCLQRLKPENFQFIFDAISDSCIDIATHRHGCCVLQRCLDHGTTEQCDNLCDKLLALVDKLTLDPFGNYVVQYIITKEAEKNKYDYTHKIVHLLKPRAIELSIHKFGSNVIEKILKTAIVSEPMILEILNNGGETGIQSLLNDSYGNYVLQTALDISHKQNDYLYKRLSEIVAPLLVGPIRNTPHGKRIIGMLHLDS

[2] = biological target: T2, PUF4 RNA-binding domain (Pumilio homology domain) (Saccharomyces cerevisiae, UniProt P25339 537-888); assay: RNA-MaP; ddG 3.166; RNA-MaP: 20 mM Na-HEPES pH 7.4, 0.1% Tween-20, 5% glycerol, 0.1 mg/mL BSA, 2 mM DTT, low salt 0.75 mM MgCl2 + 30 mM KOAc (model data; high salt 2 mM MgCl2 + 100 mM KOAc), 25 C; details: protein: recombinant; tags: C-terminal SNAP tag, Cy3B-labeled; N-terminal His tag removed with TEV; label: array RNA; single-stranded
T2 sequence: T1 sequence

[3] = biological target: T2, PUF4 RNA-binding domain (Pumilio …); assay: RNA-MaP; ddG 3.526; RNA-MaP: 20 mM Na-HEPES pH 7.4, 0.1% Tween-20, 5% glycerol, 0.1 mg/mL BSA, 2 mM DTT, low salt 0.75 mM MgCl2 + 30 mM KOAc (model data; high salt 2 mM MgCl2 + 100 mM KOAc), 25 C; details: protein: recombinant; tags: C-terminal SNAP tag, Cy3B-labeled; N-terminal His tag removed with TEV; label: array RNA; single-stranded
[4] = biological target: T2, PUF4 RNA-binding domain (Pumilio …); assay: RNA-MaP; ddG 2.995; RNA-MaP: 20 mM Na-HEPES pH 7.4, 0.1% Tween-20, 5% glycerol, 0.1 mg/mL BSA, 2 mM DTT, low salt 0.75 mM MgCl2 + 30 mM KOAc (model data; high salt 2 mM MgCl2 + 100 mM KOAc), 25 C; details: protein: recombinant; tags: C-terminal SNAP tag, Cy3B-labeled; N-terminal His tag removed with TEV; label: array RNA; single-stranded
[5] = biological target: T2, PUF4 RNA-binding domain (Pumilio …); assay: RNA-MaP; ddG 0.390; RNA-MaP: 20 mM Na-HEPES pH 7.4, 0.1% Tween-20, 5% glycerol, 0.1 mg/mL BSA, 2 mM DTT, low salt 0.75 mM MgCl2 + 30 mM KOAc (model data; high salt 2 mM MgCl2 + 100 mM KOAc), 25 C; details: protein: recombinant; tags: C-terminal SNAP tag, Cy3B-labeled; N-terminal His tag removed with TEV; label: array RNA; single-stranded
[6] = biological target: T2, PUF4 RNA-binding domain (Pumilio …); assay: RNA-MaP; ddG 1.315; RNA-MaP: 20 mM Na-HEPES pH 7.4, 0.1% Tween-20, 5% glycerol, 0.1 mg/mL BSA, 2 mM DTT, low salt 0.75 mM MgCl2 + 30 mM KOAc (model data; high salt 2 mM MgCl2 + 100 mM KOAc), 25 C; details: protein: recombinant; tags: C-terminal SNAP tag, Cy3B-labeled; N-terminal His tag removed with TEV; label: array RNA; single-stranded
[7] = biological target: T2, PUF4 RNA-binding domain (Pumilio …); assay: RNA-MaP; ddG 1.827; RNA-MaP: 20 mM Na-HEPES pH 7.4, 0.1% Tween-20, 5% glycerol, 0.1 mg/mL BSA, 2 mM DTT, low salt 0.75 mM MgCl2 + 30 mM KOAc (model data; high salt 2 mM MgCl2 + 100 mM KOAc), 25 C; details: protein: recombinant; tags: C-terminal SNAP tag, Cy3B-labeled; N-terminal His tag removed with TEV; label: array RNA; single-stranded
[8] = biological target: T2, PUF4 RNA-binding domain (Pumilio …); assay: RNA-MaP; ddG 1.641; RNA-MaP: 20 mM Na-HEPES pH 7.4, 0.1% Tween-20, 5% glycerol, 0.1 mg/mL BSA, 2 mM DTT, low salt 0.75 mM MgCl2 + 30 mM KOAc (model data; high salt 2 mM MgCl2 + 100 mM KOAc), 25 C; details: protein: recombinant; tags: C-terminal SNAP tag, Cy3B-labeled; N-terminal His tag removed with TEV; label: array RNA; single-stranded
[9] = biological target: T2, PUF4 RNA-binding domain (Pumilio …); assay: RNA-MaP; ddG 1.467; RNA-MaP: 20 mM Na-HEPES pH 7.4, 0.1% Tween-20, 5% glycerol, 0.1 mg/mL BSA, 2 mM DTT, low salt 0.75 mM MgCl2 + 30 mM KOAc (model data; high salt 2 mM MgCl2 + 100 mM KOAc), 25 C; details: protein: recombinant; tags: C-terminal SNAP tag, Cy3B-labeled; N-terminal His tag removed with TEV; label: array RNA; single-stranded
[10] = biological target: T2, PUF4 RNA-binding domain (Pumilio …); assay: RNA-MaP; ddG 1.591; RNA-MaP: 20 mM Na-HEPES pH 7.4, 0.1% Tween-20, 5% glycerol, 0.1 mg/mL BSA, 2 mM DTT, low salt 0.75 mM MgCl2 + 30 mM KOAc (model data; high salt 2 mM MgCl2 + 100 mM KOAc), 25 C; details: protein: recombinant; tags: C-terminal SNAP tag, Cy3B-labeled; N-terminal His tag removed with TEV; label: array RNA; single-stranded
[11] = biological target: T2, PUF4 RNA-binding domain (Pumilio …); assay: RNA-MaP; ddG 0.961; RNA-MaP: 20 mM Na-HEPES pH 7.4, 0.1% Tween-20, 5% glycerol, 0.1 mg/mL BSA, 2 mM DTT, low salt 0.75 mM MgCl2 + 30 mM KOAc (model data; high salt 2 mM MgCl2 + 100 mM KOAc), 25 C; details: protein: recombinant; tags: C-terminal SNAP tag, Cy3B-labeled; N-terminal His tag removed with TEV; label: array RNA; single-stranded
[12] = biological target: T2, PUF4 RNA-binding domain (Pumilio …); assay: RNA-MaP; ddG 0.613; RNA-MaP: 20 mM Na-HEPES pH 7.4, 0.1% Tween-20, 5% glycerol, 0.1 mg/mL BSA, 2 mM DTT, low salt 0.75 mM MgCl2 + 30 mM KOAc (model data; high salt 2 mM MgCl2 + 100 mM KOAc), 25 C; details: protein: recombinant; tags: C-terminal SNAP tag, Cy3B-labeled; N-terminal His tag removed with TEV; label: array RNA; single-stranded
[13] = biological target: T2, PUF4 RNA-binding domain (Pumilio …); assay: EMSA (active-fraction titration); high salt: 2 mM MgCl2, 100 mM KOAc; 69% active protein; RNA-MaP: 20 mM Na-HEPES pH 7.4, 0.1% Tween-20, 5% glycerol, 0.1 mg/mL BSA, 2 mM DTT, low salt 0.75 mM MgCl2 + 30 mM KOAc (model data; high salt 2 mM MgCl2 + 100 mM KOAc), 25 C; details: protein: recombinant; tags: C-terminal SNAP tag, Cy3B-labeled; N-terminal His tag removed with TEV; label: 32P (trace) plus unlabeled; single-stranded
PUF4 RNA-binding domain = biological target: T3, PUF4 RNA-binding domain (Saccharomyces cerevisiae, UniProt P25339 537-888); assay: Mg; RNA-MaP; 20 mM Na-HEPES pH 7.4, 30 mM KOAc, 0.75 mM MgCl2, 0.1% Tween-20, 5% glycerol, 0.1 mg/mL BSA, 2 mM DTT; 25 C; 0.0125-409.6 nM protein; details: tags: N-His6-TEV cleaved; C-SNAP kept, Cy3B-labelled; label: tethered on chip by stalled RNA polymerase
T3 sequence: T1 sequence

UGUAUCGCAC in S1b scaffold
Kd [1]: > 2400 nM

UGUAUAUUAU in S1a scaffold
Kd [1]: 0.88 nM

UCUCUUUAUAUAUAUCUCUU (ssRNA) [S1a K3.1 G2A]
Kd [2]: -8.45 ± 0.403 kcal/mol (dG=RTlnKd)

UCUCUUUGUCUAUAUCUCUU (ssRNA) [S1a K3.1 A4C]
Kd [3]: -8.09 ± 0.737 kcal/mol (dG=RTlnKd)

UCUCUUUGUUUAUAUCUCUU (ssRNA) [S1a K3.1 A4T]
Kd [4]: -8.62 ± 0.651 kcal/mol (dG=RTlnKd)

UCUCUUUGUACAUAUCUCUU (ssRNA) [S1a K3.1 T5C]
Kd [5]: -11.2 ± 0.37 kcal/mol (dG=RTlnKd)

UCUCUUUGUAAAUAUCUCUU (ssRNA) [S1a K3.1 T5A]
Kd [6]: -10.3 ± 0.252 kcal/mol (dG=RTlnKd)

UCUCUUUGUAUGUAUCUCUU (ssRNA) [S1a K3.1 A6G]
Kd [7]: -9.79 ± 0.309 kcal/mol (dG=RTlnKd)

UCUCUUUGUAUCUAUCUCUU (ssRNA) [S1a K3.1 A6C]
Kd [8]: -9.98 ± 0.415 kcal/mol (dG=RTlnKd)

UCUCUUUGUAUUUAUCUCUU (ssRNA) [S1a K3.1 A6T]
Kd [9]: -10.2 ± 0.227 kcal/mol (dG=RTlnKd)

UCUCUUUGUAUACAUCUCUU (ssRNA) [S1a K3.1 T7C]
Kd [10]: -10 ± 0.544 kcal/mol (dG=RTlnKd)

UCUCUUUGUAUAUGAUCUCUU (ssRNA) [S1a K4.1 T8G]
Kd [11]: -10.7 ± 0.299 kcal/mol (dG=RTlnKd)

UCUCUUUGUAUAUCAUCUCUU (ssRNA) [S1a K4.1 T8C]
Kd [12]: -11 ± 0.259 kcal/mol (dG=RTlnKd)

AUGUGUAUAUUAGU (ssRNA) [consensus RNA 14-mer]
binding result [13]: binds

ACAAACUAUAUUUAACAAAC (ssRNA) [Ib_S3_P3E.1_K3.1_C3.1_H3.1_[G2A]_A3.1_[A6T]_F3.1_T3.1]
Kd (PUF4 RNA-binding domain): > 2300 nM

ACAAACUGGAGAUAACAAAC (ssRNA) [Ib_S3_P3E.1_K3.1_C3.1_H3.1_[T3G]_A3.1_[T5G]_F3.1_T3.1]
Kd (PUF4 RNA-binding domain): > 2300 nM
